Test results as given in PMC3290569, “Macro-to-Micro Structural Proteomics: Native Source Proteins for High-Throughput Crystallization” (PLoS ONE, 2012).

B1: Methylglyoxal reductase (YghZ) (enzyme, Escherichia coli, UniProt Q46851 1-346, looked up)
chain: MVWLANPERYGQMQYRYCGKSGLRLPALSLGLWHNFGHVNALESQRAILRKAFDLGITHFDLANNYGPPPGSAEENFGRLLREDFAAYRDELIISTKAGYDMWPGPYGSGGSRKYLLASLDQSLKRMGLEYVDIFYSHRVDENTPMEETASALAHAVQSGKALYVGISSYSPERTQKMVELLREWKIPLLIHQPSYNLLNRWVDKSGLLDTLQNNGVGCIAFTPLAQGLLTGKYLNGIPQDSRMHREGNKVRGLTPKMLTEANLNSLRLLNEMAQQRGQSMAQMALSWLLKDDRVTSVLIGASRAEQLEENVQALNNLTFSTKELAQIDQHIADGELNLWQASSDK
notes: methylglyoxal reductase YghZ, Escherichia coli, native source protein; identified from the electron density after molecular replacement; source: purified from E. coli DH5α cells (heparin sepharose, phenyl sepharose, MonoQ)
B2: Glucose-6-phosphate isomerase (pGI) (enzyme)
chain: not shown
notes: glucose-6-phosphate isomerase, Escherichia coli, native source protein; also called phosphoglucose isomerase; source: purified from E. coli DH5α cells (CaptoQ, phenyl sepharose, MonoQ)
B3: Catalase HPII (enzyme, Escherichia coli, UniProt P21179 1-753, looked up)
chain: MSQHNEKNPHQHQSPLHDSSEAKPGMDSLAPEDGSHRPAAEPTPPGAQPTAPGSLKAPDTRNEKLNSLEDVRKGSENYALTTNQGVRIADDQNSLRAGSRGPTLLEDFILREKITHFDHERIPERIVHARGSAAHGYFQPYKSLSDITKADFLSDPNKITPVFVRFSTVQGGAGSADTVRDIRGFATKFYTEEGIFDLVGNNTPIFFIQDAHKFPDFVHAVKPEPHWAIPQGQSAHDTFWDYVSLQPETLHNVMWAMSDRGIPRSYRTMEGFGIHTFRLINAEGKATFVRFHWKPLAGKASLVWDEAQKLTGRDPDFHRRELWEAIEAGDFPEYELGFQLIPEEDEFKFDFDLLDPTKLIPEELVPVQRVGKMVLNRNPDNFFAENEQAAFHPGHIVPGLDFTNDPLLQGRLFSYTDTQISRLGGPNFHEIPINRPTCPYHNFQRDGMHRMGIDTNPANYEPNSINDNWPRETPPGPKRGGFESYQERVEGNKVRERSPSFGEYYSHPRLFWLSQTPFEQRHIVDGFSFELSKVVRPYIRERVVDQLAHIDLTLAQAVAKNLGIELTDDQLNITPPPDVNGLKKDPSLSLYAIPDGDVKGRVVAILLNDEVRSADLLAILKALKAKGVHAKLLYSRMGEVTADDGTVLPIAATFAGAPSLTVDAVIVPCGNIADIADNGDANYYLMEAYKHLKPIALAGDARKFKATIKIADQGEEGIVEADSADGSFMDELLTLMAAHRVWSRIPKIDKIPA
notes: catalase HPII, Escherichia coli, native source protein; identified with PDB 1GG9; the PDB entry is the previously deposited structure that identified the protein; the crystallised protein is the native one; source: purified from E. coli DH5α cells (whole-proteome fractionation)
B4: Cystathione gamma-synthase (enzyme, Escherichia coli, UniProt P00935 1-386, looked up)
chain: MTRKQATIAVRSGLNDDEQYGCVVPPIHLSSTYNFTGFNEPRAHDYSRRGNPTRDVVQRALAELEGGAGAVLTNTGMSAIHLVTTVFLKPGDLLVAPHDCYGGSYRLFDSLAKRGCYRVLFVDQGDEQALRAALAEKPKLVLVESPSNPLLRVVDIAKICHLAREVGAVSVVDNTFLSPALQNPLALGADLVLHSCTKYLNGHSDVVAGVVIAKDPDVVTELAWWANNIGVTGGAFDSYLLLRGLRTLVPRMELAQRNAQAIVKYLQTQPLVKKLYHPSLPENQGHEIAARQQKGFGAMLSFELDGDEQTLRRFLGGLSLFTLAESLGGVESLISHAATMTHAGMAPEARAAAGISETLLRISTGIEDGEDLIADLENGFRAANKG
notes: cystathionine gamma-synthase (printed: Cystathione gamma-synthase), Escherichia coli, native source protein; identified with PDB 1CS1; the PDB entry is the previously deposited structure that identified the protein; the crystallised protein is the native one; source: purified from E. coli DH5α cells (whole-proteome fractionation)
B5: Ariginosuccinate lyase (enzyme, Escherichia coli, UniProt P11447 1-457, looked up)
chain: MALWGGRFTQAADQRFKQFNDSLRFDYRLAEQDIVGSVAWSKALVTVGVLTAEEQAQLEEALNVLLEDVRARPQQILESDAEDIHSWVEGKLIDKVGQLGKKLHTGRSRNDQVATDLKLWCKDTVSELLTANRQLQSALVETAQNNQDAVMPGYTHLQRAQPVTFAHWCLAYVEMLARDESRLQDALKRLDVSPLGCGALAGTAYEIDREQLAGWLGFASATRNSLDSVSDRDHVLELLSAAAIGMVHLSRFAEDLIFFNTGEAGFVELSDRVTSGSSLMPQKKNPDALELIRGKCGRVQGALTGMMMTLKGLPLAYNKDMQEDKEGLFDALDTWLDCLHMAALVLDGIQVKRPRCQEAAQQGYANATELADYLVAKGVPFREAHHIVGEAVVEAIRQGKPLEDLPLSELQKFSQVIDEDVYPILSLQSCLDKRAAKGGVSPQQVAQAIAFAQARLG
notes: argininosuccinate lyase (printed: Ariginosuccinate lyase), Escherichia coli, native source protein; identified with PDB 1TJ7; the PDB entry is the previously deposited structure that identified the protein; the crystallised protein is the native one; also called Arginosuccinate lyase; source: purified from E. coli DH5α cells (whole-proteome fractionation)
B6: Lysyl-tRNA synthetase (constitutive) (enzyme, Escherichia coli, UniProt P0A8N3 1-505, looked up)
chain: MSEQHAQGADAVVDLNNELKTRREKLANLREQGIAFPNDFRRDHTSDQLHAEFDGKENEELEALNIEVAVAGRMMTRRIMGKASFVTLQDVGGRIQLYVARDDLPEGVYNEQFKKWDLGDILGAKGKLFKTKTGELSIHCTELRLLTKALRPLPDKFHGLQDQEARYRQRYLDLISNDESRNTFKVRSQILSGIRQFMVNRGFMEVETPMMQVIPGGAAARPFITHHNALDLDMYLRIAPELYLKRLVVGGFERVFEINRNFRNEGISVRHNPEFTMMELYMAYADYKDLIELTESLFRTLAQDILGKTEVTYGDVTLDFGKPFEKLTMREAIKKYRPETDMADLDNFDSAKAIAESIGIHVEKSWGLGRIVTEIFEEVAEAHLIQPTFITEYPAEVSPLARRNDVNPEITDRFEFFIGGREIGNGFSELNDAEDQAQRFLDQVAAKDAGDDEAMFYDEDYVTALEHGLPPTAGLGIGIDRMVMLFTNSHTIRDVILFPAMRPVK
notes: lysyl-tRNA synthetase, constitutive form, Escherichia coli, native source protein; identified with PDB 1BBW; the PDB entry is the previously deposited structure that identified the protein; the crystallised protein is the native one; source: purified from E. coli DH5α cells (whole-proteome fractionation)
B7: Citrate synthase (enzyme, Escherichia coli, UniProt P0ABH7 1-427, looked up)
chain: MADTKAKLTLNGDTAVELDVLKGTLGQDVIDIRTLGSKGVFTFDPGFTSTASCESKITFIDGDEGILLHRGFPIDQLATDSNYLEVCYILLNGEKPTQEQYDEFKTTVTRHTMIHEQITRLFHAFRRDSHPMAVMCGITGALAAFYHDSLDVNNPRHREIAAFRLLSKMPTMAAMCYKYSIGQPFVYPRNDLSYAGNFLNMMFSTPCEPYEVNPILERAMDRILILHADHEQNASTSTVRTAGSSGANPFACIAAGIASLWGPAHGGANEAALKMLEEISSVKHIPEFVRRAKDKNDSFRLMGFGHRVYKNYDPRATVMRETCHEVLKELGTKDDLLEVAMELENIALNDPYFIEKKLYPNVDFYSGIILKAMGIPSSMFTVIFAMARTVGWIAHWSEMHSDGMKIARPRQLYTGYEKRDFKSDIKR
notes: citrate synthase, Escherichia coli, native source protein; identified with PDB 1NXG; the PDB entry is the previously deposited structure that identified the protein; the crystallised protein is the native one; source: purified from E. coli DH5α cells (whole-proteome fractionation)
B8: Dihydrodipicolinate synthase (enzyme, Escherichia coli, UniProt P0A6L2 1-292, looked up)
chain: MFTGSIVAIVTPMDEKGNVCRASLKKLIDYHVASGTSAIVSVGTTGESATLNHDEHADVVMMTLDLADGRIPVIAGTGANATAEAISLTQRFNDSGIVGCLTVTPYYNRPSQEGLYQHFKAIAEHTDLPQILYNVPSRTGCDLLPETVGRLAKVKNIIGIKEATGNLTRVNQIKELVSDDFVLLSGDDASALDFMQLGGHGVISVTANVAARDMAQMCKLAAEGHFAEARVINQRLMPLHNKLFVEPNPIPVKWACKELGLVATDTLRLPMTPITDSGRETVRAALKHAGLL
notes: dihydrodipicolinate synthase, Escherichia coli, native source protein; identified with PDB 1DHP; the PDB entry is the previously deposited structure that identified the protein; the crystallised protein is the native one; source: purified from E. coli DH5α cells (whole-proteome fractionation)

Target: the molecule itself
Assay: crystal structure; novel structures of native source E. coli proteins, solved by molecular replacement and refined; oligomer seen in the crystal

Protein | stoichiometry N
B1 | 4
B2 | 2

Target: the molecule itself
Assay: crystal structure; native source E. coli proteins already in the PDB, identified and solved by brute-force molecular replacement, not refined except to confirm the solution; oligomer seen in the crystal

Protein | binding result
B3 | binds
B4 | binds
B5 | binds
B6 | binds
B7 | binds
B8 | binds
